The experiment deals with human HLA-A24 and β2-microglobulin (human). Kind of experiment: MHC-peptide complex formation assay with human HLA-A24 and β2m (procedures of Example 1), sandwich ELISA, relative to positive control peptide. A general note: In an ELISA, binding on a coated surface is turned into a signal by an enzyme label.
HIVEWNVSLF [TAL6 peptide No. 12 of Table 2, …]: the Relative binding (%) stood at 28%. Turning to EWNVSLFSI [TAL6 peptide No. 14 of Table 2, …], the Relative binding (%) was 74%.

In turn, RFVWFFSGI [TAL6 peptide No. 6 of Table 2, …] gave a Relative binding (%) of 91.9%. Molecule HSLVGLALL [TAL6 peptide No. 2 of Table 2, …] had a Relative binding (%) of 61.7%. Molecule LYFPNGETKY [TAL6 peptide No. 4 of Table 2, …] registered a Relative binding (%) of 85%.

TFASTEGQY [TAL6 peptide No. 9 of Table 2, …]: the Relative binding (%) came to 49.2%.

Regarding GGIEFILCL [TAL6 peptide No. 16 of Table 2, …], the Relative binding (%) amounted to 25.3%. The molecule KYASENHLS [TAL6 peptide No. 5 of Table 2, …] showed a Relative binding (%) of 64.6%.

GYCVIVAAL [TAL6 peptide No. 8 of Table 2, …]: the Relative binding (%) is 118%. The molecule GGIEFILCLI [TAL6 peptide No. 17 of Table 2, …] yielded a Relative binding (%) of 14.8%. Molecule EWNVSLFSIL [TAL6 peptide No. 15 of Table 2, …] showed a Relative binding (%) of 22.2%. The molecule IVEWNVSLF [TAL6 peptide No. 13 of Table 2, …] displayed a Relative binding (%) of 41%. Molecule TFASTEGQYL [TAL6 peptide No. 10 of Table 2, …] had a Relative binding (%) of 116%.

In turn, FFSGIVGGGL [TAL6 peptide No. 7 of Table 2, …] had a Relative binding (%) of 72.4%. Consider QYLLDTSTW [TAL6 peptide No. 11 of Table 2, …], for which the Relative binding (%) was determined as 111%. Take CYGKCARCI [TAL6 peptide No. 1 of Table 2, …]: the Relative binding (%) is 126%.
